The source of these data is paper PMC6254012, “AP2/ERF Family Transcription Factors ORA59 and RAP2.3 Interact in the Nucleus and Function Together in Ethylene Responses” (Frontiers in Plant Science, 2018).

The assay concerns the target T1, His-tagged RAP2.3 (RAP2.3-His) (Arabidopsis thaliana, UniProt P42736 1-248).
T1 construct: RAP2.3 (related to AP2.3), Arabidopsis thaliana; not shown: His, C-terminal, kept
Kind of assay: pull-down; GST or ORA59-GST (10 μg) on glutathione sepharose 4B beads, RAP2.3-His (10 μg) added for 2 h at 4°C; 25 mM Tris-HCl pH 8.0, 100 mM NaCl, 1% Triton X-100, 1 mM DTT; immunoblot with anti-GST and anti-His. The settings on record: both partners purified. (Immunoblotting shows a protein as a band on a membrane.)

T1 sequence (P42736 whole entry): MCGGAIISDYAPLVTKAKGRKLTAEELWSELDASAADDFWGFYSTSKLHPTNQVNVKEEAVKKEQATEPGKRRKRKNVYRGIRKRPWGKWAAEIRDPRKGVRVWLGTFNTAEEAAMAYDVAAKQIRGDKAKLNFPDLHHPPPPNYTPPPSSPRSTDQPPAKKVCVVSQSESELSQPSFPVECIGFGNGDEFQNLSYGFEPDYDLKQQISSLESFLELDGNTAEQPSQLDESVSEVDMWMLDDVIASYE

B1: C-terminal GST-tagged ORA59 (ORA59-GST) (natural protein)
chain: not shown
notes: ORA59 (octadecanoid-responsive arabidopsis 59), Arabidopsis thaliana; not shown: GST, C-terminal, kept
As to B1, the binding result is recorded as “binds”.
